For experiment [1], the target named is T1, biotinylated human VWF cysteine knot (CK) domain construct (human, UniProt P04275 2724-2813, biotinylated in vitro (BirA) on the biotinylation tag; one N-glycan).
T1 construct: Expressed in HEK293 EBNA cells; disulfide-linked homodimer; also called human VWF CK; human VWF CK domain; not shown: in vitro biotinylation tag, HRV-3C site and 3 VWF residues before the CK domain
The experiment is described as follows: SPR, scFv captured via anti-SV5, CK domain injected, pH 5.5, apparent Kd.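 Note: scFvs from crude yeast supernatants captured on chip-bound anti-SV5 antibody, Kd computed as koff divided by kon, dimeric CK construct likely makes affinity appear higher.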 For orientation: Surface plasmon resonance follows binding to a sensor surface in real time, without labels.

In experiment [2] the target is T1, biotinylated human VWF cysteine knot …. The experiment is described as follows: SPR, scFv captured via anti-SV5, CK domain injected, pH 7.4, apparent Kd.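 Note: scFvs from crude yeast supernatants printed on an amine-coupled anti-SV5 lawn, Kd computed as koff over kon, likely overestimating affinity because the CK construct is dimeric.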
From the text: Briefly, a sensor chip was activated and coupled with an anti-SV5 mouse monoclonal antibody using amine coupling. The soluble scFvs in crude yeast supernatants were printed on the anti-SV5 lawn. […] From the measured association (kₒₙ) and dissociation (koff) rate constants, an apparent equilibrium dissociation constant (Kd=koff/kₒₙ) was estimated. Due to the dimeric state of the CK construct and consequent possibility for simultaneous binding of captured scFv to both monomers in the CK dimer, the SPR setup was expected to overestimate the binding affinity.
In experiment [3] the target is T2, biotinylated cynomolgus monkey VWF cysteine knot (CK) domain construct (cynomolgus monkey, biotinylated in vitro (BirA) on the biotinylation tag; one N-glycan).
T2 construct: Expressed in HEK293 EBNA cells; disulfide-linked homodimer; also called cyno VWF CK; cyno VWF CK domain; not shown: in vitro biotinylation tag, HRV-3C site and 3 VWF residues before the CK domain
T2 chain: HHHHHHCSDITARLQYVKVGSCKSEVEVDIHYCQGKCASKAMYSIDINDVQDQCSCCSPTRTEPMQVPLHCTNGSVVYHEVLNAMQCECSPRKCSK
The experiment is described as above.

B1: Lib4_P2_A10_scFv (scFv)
scFv: QVQLQESGPGLVKPSQTLSLTCTVSGASLGHQYWSWIRQPPGKGLEWIGYIDTSGSTDYNPSLKSRVTMSVDTSKNQFSLKVNSVTAADTAVYYCARVANYYYYMDVWGKGTTVTVSSSGGSTITSYNVYYTKLSSSGTEIVMTQSPATLSLSPGERATLSCRASQSVSNRLAWYQQKPGQAPRLLIYDASNRATGIPARFSGSGSGTDFTLTISSLEPEDFAVYYCQQYFITPSTFGGGTKVEIK
notes: VH-linker-VL; not shown: C-terminal 3xFLAG and SV5 tags
Take B1: the Kd in experiment [1] was found to be 3.36 nM; in experiment [2] it was 2.7 nM; in experiment [3] it was 0.733 nM.

B2: Lib4_P2_A3_scFv (scFv)
scFv: QVQLQESGPGLVKPSQTLSLTCTVSGVSLSTSDYSWSWIRQPPGKGLEWIGYISPPGRSDYNPSLKSRVTMSVDTSKNQFSLKVNSVTAADTAVYYCARHSSSGWYSTYDFDSWGQGTMVTVSSSGGSTITSYNVYYTKLSSSGTEIVMTQSPATLSLSPGERATLSCRASQNIHSNLAWYQQKPGQAPRLLIYGATTRATGIPARFSGSGSGTDFTLTISSLEPEDFAVYYCQQSYTTPLTFGGGTKVEIK
notes: as for B1
As to B2, the Kd in experiment [1] amounted to 1.93 nM; in experiment [2], 1.48 nM; in experiment [3], 0.387 nM.

B3: Lib6_P3_A1_scFv (scFv)
scFv: QVQLVQSGAEVKKPGASVKVSCKVSGDTLSNYAIHWVRQAPGKGLEWMGGINPNAGTTIYAQKFQGRVTMTEDTSTDTAYMELSSLKSEDTAVYYCARDSSSWCPVGYYYYYMDVWGKGTTVTVSSSGGSTITSYNVYYTKLSSSGTDIQMTQSPSSVSASVGDRVTITCRASQSIGDFLAWYQQKPGKAPKLLIYDASHLQTGVPSRFSGSGSGTDFTLTISSLQPEDFANYYCQQTSTIPPTFGGGTKVEIK
notes: as for B1
Consider B3, for which the Kd in experiment [1] came out at 1.32 nM; in experiment [2], 1.41 nM; in experiment [3], 0.017 nM.

B4: Lib6_P3_E10_scFv (scFv)
scFv: B3 scFv
notes: as for B1
As for B4, the Kd came to 0.659 nM in experiment [1], 1.72 nM in experiment [2] and 1.96 nM in experiment [3].

B5: Lib4_P2_B1_scFv (scFv)
scFv: B3 scFv
notes: as for B1
B5: the Kd amounted to 2.12 nM in experiment [1], 1.89 nM in experiment [2] and 0.48 nM in experiment [3].

B6: Lib4_P2_A2_scFv (scFv)
scFv: B3 scFv
notes: as for B1
Regarding B6, the values for the Kd in experiment [1], in experiment [2] and in experiment [3] were 0.604 nM, 2.05 nM and 0.305 nM, respectively.

B7: 4035_Lib1_scFv (scFv)
scFv: QVQLVQSGAEVKKPGASVKVSCKVSGYAFPSYGIHWVRQAPGKGLEWMGGISAFTGDTIYAQKFQGRVTMTEDTSTDTAYMELSSLKSEDTAVYYCASGPTNVLTGLMESAEYFQHWGQGTLVTVSSSGGSTITSYNVYYTKLSSSGTDIQMTQSPSSVSASVGDRVTITCRASQGISRDLAWYQQKPGKAPKLLIYGASGRATGVPSRFSGSGSGTDFTLTISSLQPEDFANYYCQQSYITPTTFGGGTKVEIK
notes: as for B1
Take B7: the Kd in experiment [1] is 1.41 nM; in experiment [2], 1.76 nM; in experiment [3] it was 0.974 nM.

B8: 11485_Lib1_scFv (scFv)
scFv: QVQLVQSGAEVKKPGASVKVSCKVSGAPSAAIIHWVRQAPGKGLEWMGGFTQIFGTAIYAQKFQGRVTMTEDTSTDTAYMELSSLKSEDTAVYYCAREGIGGHDAFDIWGQGTMVTVSSSGGSTITSYNVYYTKLSSSGTDIQMTQSPSSVSASVGDRVTITCRASQDISKNLAWYQQKPGKAPKLLIYKASKLESGVPSRFSGSGSGTDFTLTISSLQPEDFANYYCLHDYTYPPTFGGGTKVEIK
notes: as for B1
For B8, the Kd came to 1.82 nM in experiment [1], 2.22 nM in experiment [2] and 3.16 nM in experiment [3].

B9: 399_Lib1_scFv (scFv)
scFv: QVQLVQSGAEVKKPGASVKVSCKVSGITFTSDYIHWVRQAPGKGLEWMGGMNPYSNKAIYAQKFQGRVTMTEDTSTDTAYMELSSLKSEDTAVYYCATGGLRIAARTSYFDYWGQGTLVTVSSSGGSTITSYNVYYTKLSSSGTDIQMTQSPSSVSASVGDRVTITCRASMDIAGSLAWYQQKPGKAPKLLIYDTSFRATGVPSRFSGSGSGTDFTLTISSLQPEDFANYYCQQYDNPPRLTFGGGTKVEIK
notes: as for B1
Turning to B9, the Kd in experiment [1] was determined as 0.127 nM; in experiment [2], 2.62 nM; in experiment [3], 2.05 nM.

B10: 487_Lib1_scFv (scFv)
scFv: QVQLVQSGAEVKKPGASVKVSCKVSGYTFTSHIIHWVRQAPGKGLEWMGGMNPYSNKAIYAQKFQGRVTMTEDTSTDTAYMELSSLKSEDTAVYYCARDASDYGDYGYYYYYMDVWGKGTTVTVSSSGGSTITSYNVYYTKLSSSGTDIQMTQSPSSVSASVGDRVTITCRASQSIGDFLAWYQQKPGKAPKLLIYDASHLQTGVPSRFSGSGSGTDFTLTISSLQPEDFANYYCQQTSTIPPTFGGGTKVEIK
notes: as for B1
Consider B10, for which the Kd in experiment [1] was found to be 0.829 nM; in experiment [2], 1.5 nM; in experiment [3] it was 1.51 nM.

B11: 96_Lib4_scFv (scFv)
scFv: QVQLQESGPGLVKPSQTLSLTCTVSGESFSTSYWSWIRQPPGKGLEWIGYITHSGYTDYNPSLKSRVTMSVDTSKNQFSLKVNSVTAADTAVYYCARGGRFPFWYFDLWGRGSLVTVSSSGGSTITSYNVYYTKLSSSGTEIVMTQSPATLSLSPGERATLSCRASRSIGSNLAWYQQKPGQAPRLLIYGATTRATGIPARFSGSGSGTDFTLTISSLEPEDFAVYYCQQYKNDATFGGGTKVEIK
notes: as for B1
On to B11, for which the Kd in experiment [1] is 1.4 nM; in experiment [2], 1.77 nM; in experiment [3], 1.21 nM.

B12: 965_Lib4_scFv (scFv)
scFv: QVQLQESGPGLVKPSQTLSLTCTVSGASFGDNYWSWIRQPPGKGLEWIGYIDTSGSSDYNPSLKSRVTMSVDTSKNQFSLKVNSVTAADTAVYYCARDALGYYYMDVWGKGTTVTVSSSGGSTITSYNVYYTKLSSSGTEIVMTQSPATLSLSPGERATLSCRASQGISGRLAWYQQKPGQAPRLLIYDASARASGIPARFSGSGSGTDFTLTISSLEPEDFAVYYCQQYGTSPYTFGGGTKVEIK
notes: as for B1
Take B12: the Kd in experiment [1] was 0.621 nM; in experiment [2] it was 2.79 nM; in experiment [3], 1.17 nM.

B13: 2301_Lib4_scFv (scFv)
scFv: QVQLQESGPGLVKPSQTLSLTCTVSGASISTSDHSWSWIRQPPGKGLEWIGYIRDTGSTDYNPSLKSRVTMSVDTSKNQFSLKVNSVTAADTAVYYCAISSTERWKQSFGVDTEYFQHWGQGTLVTVSSSGGSTITSYNVYYTKLSSSGTEIVMTQSPATLSLSPGERATLSCRASRYVSTNLAWYQQKPGQAPRLLIYDAVTRAPGIPARFSGSGSGTDFTLTISSLEPEDFAVYYCQQYHSLPLIFGGGTKVEIK
notes: as for B1
As to B13, the Kd was 3.87 nM in experiment [1], 1.84 nM in experiment [2] and 0.803 nM in experiment [3].

B14: 256_Lib8_scFv (scFv)
scFv: EVQLVESGGGLVQPGRSLRLSCAASGFTVSSNAMHWVRQAPGKGLEWVSAIGTFADTDYADSVEGRFTISRDNAKNSLYLQMNSLRAEDTAVYYCAREGAAAGTNFDYWGQGTLVTVSSSGGSTITSYNVYYTKLSSSGTDIQMTQSPSSLSASVGDRVTITCRASQGIRSYLAWYQQKPGKAPKLLIYGASTLEGGVPSRFSGSGSGTDFTLTISSLQPEDVATYYCQQSYSTPPKFGGGTKVEIK
notes: as for B1
Take B14: the Kd is 0.731 nM in experiment [1], 1.76 nM in experiment [2] and 0.758 nM in experiment [3].

B15: 4956_Lib1_scFv (scFv)
scFv: QVQLVQSGAEVKKPGASVKVSCKVSGYTLTSNYIHWVRQAPGKGLEWMGGFNPSSGSTIYAQKFQGRVTMTEDTSTDTAYMELSSLKSEDTAVYYCARTLYDFWSGYLDAFDIWGQGTMVTVSSSGGSTITSYNVYYTKLSSSGTDIQMTQSPSSVSASVGDRVTITCRASQNIRSSLAWYQQKPGKAPKLLIYAASNLEPGVPSRFSGSGSGTDFTLTISSLQPEDFANYYCQQYEDTPLTFGGGTKVEIK
notes: as for B1
On to B15, for which the Kd amounted to 1.91 nM in experiment [1], 2.22 nM in experiment [2] and 1.36 nM in experiment [3].

B16: Lib6_P3_A8_scFv (scFv)
scFv: EVQLVQSGAEVKKPGASVKVSCKASGYRFTNYDISWVRQAPGQGLEWMGGINPSSGITIYAQKLQGRGTMTTDPSTSTAYMELRSLRSDDTAVYYCARGAAYGDYLDYWGQGTLVTVSSSGGSTITSYNVYYTKLSSSGTESALTQPASVSGSPGQSITISCTGTNLGEKYVSWYQQHPGKAPKLMIYSTSQRPSGVSNRFSGSKSGNTASLTITGLQAEDEADYYCSSYTASSTPGLVFGGGTKLTVL
notes: as for B1
Regarding B16, the Kd worked out at 0.872 nM in experiment [1], 2.72 nM in experiment [2] and 0.435 nM in experiment [3].
